# Experimental data published in US20260184779A1 (XBIOTECH, published 2026).
# T1: recombinant human interleukin 1 alpha (IL-1α) (human, UniProt P01583 113-271)
# T1 sequence (looked up): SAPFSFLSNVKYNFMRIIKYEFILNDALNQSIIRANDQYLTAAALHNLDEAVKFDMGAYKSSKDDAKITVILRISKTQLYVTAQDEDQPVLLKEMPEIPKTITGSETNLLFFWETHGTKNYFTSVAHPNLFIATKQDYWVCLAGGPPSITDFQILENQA
# B1: human monoclonal antibody designated XIA13 (antibody, V domains shown)
# VH: QVQLVQSGAEVKKPGSSVKVSCKASGGRFTNYAILWVRQAPGQGLQWLGGIIPIFDETDHAQDFQDRLTITVDESMTTAYMELSSLRPEDTAIYYCATGSNSYYGLYWGQGTLVTVSS
# VL: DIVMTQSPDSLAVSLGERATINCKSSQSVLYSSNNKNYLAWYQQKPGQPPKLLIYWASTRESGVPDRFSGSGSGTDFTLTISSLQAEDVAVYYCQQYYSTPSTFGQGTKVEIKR
# Biological target: T1, recombinant human interleukin 1 alpha …
# Assay: cell-based or functional assay
binder,measurement,value
B1,"HUVEC-based potency assay: ICAM-1 expression on HUVEC cells by flow cytometry, IC50",3.7 ng/mL
